From paper PMC11482907 (bioRxiv, 2024)

Biological target: the molecule itself
Assay: cryo-EM structure

B1: HCMV UL141 soluble ectodomain (residues 30-278) with C-terminal 8X His-Tag (domain or fragment)
chain: SFPFATADIAEKMWAENYETTSPAPVLVAEGEQVTIPCTVMTHSWPMVSIRARFCRSHDGSDELILDAVKGHRLMNGLQYRLPYATWNFSQLHLGQIFSLTFNVSTDTAGMYECVLRNYSHGLIMQRFVILTQLETLSRPDEPCCTPALGRYSLGDQIWSPTPWRLRNHDCGMYRGFQRNYFYIGRADAEDCWKPACPDEEPDRCWTVIQRYRLPGDCYRSQPHPPKFLPVTPAPPADIDTGMSPWATR
stoichiometry N: 2
